Data set [1] can be described thus: Plasma pharmacokinetics of EC0565 after a single intravenous or subcutaneous dose. The following applies: for Tmax: sc. On the procedure:
The bioavailability of EC0565 after subcutaneous injection was measured. Female Lewis rats with rounded tip jugular vein catheters (Harlan) were fed regular rodent diet. The treated animals were given a single intravenous or subcutaneous dose of EC0565 at 2 μmmol/kg. […] For subcutaneous administration FIG. 18b, whole blood samples (300 μl) were collected from the animals at 1 min, 10 min, 30 min, 1 h, 2 h, 3 h, 4 h, 8 h, and 12 h post injection. The blood samples were placed into anti-coagulant tubes containing 1.7 mg/mL of K3-EDTA and 0.35 mg/mL of N-maleoyl-beta-alanine (0.35 mg/mL). Plasma samples were obtained by centrifugation for 3 min at ˜2,000 g and stored at −80° C. The amount of EC0565 and its released base drug (everolimus) were determined by HPLC using the EC0565 injection solution as the standard.

The next data set can be described thus: physchem. The following applies: pH 7.4.
The conditions of data set [2]: rats; cited from earlier work.
The conditions of data set [3]: cited from earlier work.
Data set [4] relates to Proliferating Cell Nuclear Antigen (PCNA). Description: Western blot of PCNA in synchronized RAW264.7 cells. Format: cell-based, murine. The following applies: 1-1000 nM; EC0565 2 h treatment, 48-h chase; everolimus 48 h. For orientation: A western blot detects proteins with antibodies after separation by electrophoresis.
Description: To study anti-proliferative effect of EC0565, FR-positive murine macrophage-like RAW264.7 cells (serum deprived for 36 h for synchonization) were given a 2 h treatment of EC0565 (1, 10, 100, and 1000 nM) without or with 1000× excess of EC17 (as a folate competitor) followed by a 48-h chase in drug-free medium. For comparison, the cells were also treated for 48 h with everolimus (1, 10, 100, and 1000 nM). […] Western blot analysis was carried out on whole cell lysates using a monoclonal antibody specific for PCNA (PC10, Cell Signaling, Danvers, Mass.). After incubation with a peroxidase-conjugated secondary antibody, the signals were visualized using SuperSignal West Pico Chemiluminescent Substrate system (ThermoScientific, Waltham, Mass.) following the manufacturer's instructions. The images were acquired using a G:BOX Chemi HR 16 gel imaging system (Syngene, Frederick, Md.).
Where [5] appears, read: female, Lewis, rat, in vivo, 2 μmmol/kg.

One may read the Tmax as the time from dosing to the highest level. Usually solubility stands for how much of the substance goes into solution per volume. Read a low solubility as a poorly soluble substance.

A value given as a limit tells only on which side of the number the result lay.

`CO[C@H]1C[C@@H]2CC[C@@H](C)[C@@](O)(O2)C(=O)C(=O)N2CCCC[C@H]2C(=O)O[C@H]([C@H](C)C[C@@H]2CC[C@@H](OCCOC(=O)OCCSSC[C@H](NC(=O)[C@H](CCC(=O)NC[C@H](O)[C@@H](O)[C@H](O)[C@H](O)CO)NC(=O)[C@H](CCC(=O)O)NC(=O)[C@H](CCC(=O)NC[C@H](O)[C@@H](O)[C@H](O)[C@H](O)CO)NC(=O)[C@H](CCC(=O)O)NC(=O)[C@H](CCC(=O)NC[C@H](O)[C@@H](O)[C@H](O)[C@H](O)CO)NC(=O)CC[C@H](NC(=O)c3ccc(NCc4cnc5nc(N)[nH]c(=O)c5n4)cc3)C(=O)O)C(=O)O)[C@H](OC)C2)CC(=O)[C@H](C)/C=C(\C)[C@@H](O)[C@@H](OC)C(=O)[C@H](C)C[C@H](C)/C=C/C=C/C=C/1C` [EC0565]: in data set [1] (setting [5]), the bioavailability was approximately 128% and the Tmax was approximately 1 h. The “free drug (everolimus) exposure/release in plasma, based on AUC” value in data set [1] (single intravenous dose of EC0565 at 2 μmmol/kg) is reported as “approximately 18%”. For the same compound, in data set [1] (single subcutaneous dose of EC0565 at 2 μmmol/kg), the “free drug (everolimus) exposure/release in plasma, based on AUC” value is approximately 17%. This compound returned a solubility in “physchem” of more than 1000 µM.

As to `CO[C@H]1C[C@@H]2CC[C@@H](C)[C@@](O)(O2)C(=O)C(=O)N2CCCC[C@H]2C(=O)O[C@H]([C@H](C)C[C@@H]2CC[C@@H](OCCO)[C@H](OC)C2)CC(=O)[C@H](C)/C=C(\C)[C@@H](O)[C@@H](OC)C(=O)[C@H](C)C[C@H](C)/C=C/C=C/C=C/1C` [everolimus], the Tmax in data set [1] (female, Lewis, rat, in vivo) is listed as approximately 1 h. Further, the oral bioavailability in data set [2] is recorded as approximately 12%. The water solubility in data set [3] is 1 to 10 µM. Moreover, the “effect on PCNA activities” value in data set [4] is “inhibited PCNA activities”.

The record behind these values is patent publication US20130203680A1, “FOLATE CONJUGATES FOR TREATING INFLAMMATION OF THE EYE” (ENDOCYTE, INC., priority 2010, published 2013).
